B1: TsNirK (Thermus scotoductus SA-01) (protein)
chain: AERHFTLEARSSIFEVDQGVYLRGFSFNDMSPGPMLVVEEGDTVHITLRNLDNVTHGLSIHAANTQTSRFLGNVQPGETREFSFTADFPGVFMYHCAPGGHGIMAHTMGGQFGMIVVEPKEKYRMERELGRGPDLKLYIIQSEAYASGRDFYDGKALYVMFNGRNFRYVDEPIPVRPGDYLRIYFLNVGPNLTSTLHVVGGIFEYMYYQGNPKNLVVGAQTALAGPSDSWVIEWRVPPVEGDYTLVTHVFGTAIKGALGILRAKKDAPRIPEVRAEGVPGVKEIPASAKRVVDPYGLASPGHEHTVRVPLDPALAQPVAVGAKALEPLPVTVQMVGNSFYPKVLEIPVGTTVEFVNEDVFDLLEGERTGRHDAVVIDVQGPEPFVTPKLGHGERYRITFTKPGEYVYICSIHPYMKGIIRVYEPLSQRADSQ
notes: codon-optimised gene in pET-22b(+), E. coli BL21(DE3); 451-residue subunits (~50 kDa), homotrimer, three Cu per subunit; domains Ala20-Glu137, Leu154-Ala282, Arg309-Leu444

Tests used:
[1] = target: Copper-containing nitrite reductase (NirK) from Thermus scotoductus SA-01 (Thermus scotoductus SA-01); assay: SEC; Superdex 200 10/300 column, 150 mM Tris-HCl pH 7.6, 0.5 ml/min, calibrated with mass markers; subunit mass by SDS-PAGE
[2] = target: Copper-containing nitrite reductase (NirK) from Thermus scotoductus SA-01 (Thermus scotoductus SA-01); assay: crystal structure; twinned H3 crystals with one protomer in the asymmetric unit; trimer by the crystallographic threefold axis; data not shown
[3] = target: Copper-containing nitrite reductase (NirK) from Thermus scotoductus SA-01 (Thermus scotoductus SA-01); assay: crystal structure; C121 crystal with the whole homotrimer in the asymmetric unit, 1.63 Å; 0.2 M CaCl2, 0.1 M HEPES sodium pH 7.5, 28% PEG 400, 16°C
[4] = substrate: O=NO; assay: nitrite reductase kinetics, methyl viologen standard assay; format: biochemical, Thermus scotoductus; settings: methyl viologen (dithionite-reduced) as artificial electron donor per standard NirK assay; apparent constant

Molecule	stoichiometry N [1]	stoichiometry N [2]	stoichiometry N [3]	Km [4] [µM]	kcat [4] [s⁻¹]
Copper-containing nitrite reductase (NirK) from Thermus scotoductus SA-01 (enzyme)	3	3	3	–	–
B1	–	–	–	27 ± 2	65 ± 1
